How the values were obtained:
[1] = biological target: T1, AlgWS227A (inactive mutant of the periplasmic soluble domain of AlgW, for crystallization) (Pseudomonas aeruginosa, UniProt Q9HVX1 52-389, S227A); experiment: crystal structure; protein mixed with peptide activator (tripeptide WVF or decapeptide …) prior to crystallization; hanging-drop vapor diffusion at 18°C; molecular replacement; conditions: both partners purified
T1 construct: AlgW of Pseudomonas aeruginosa, residues 52-389 (construct for crystallization), catalytic serine S227 changed to alanine; source: E. coli BL21(DE3), purified (Ni-NTA, Superdex-75 SEC)
T1 sequence: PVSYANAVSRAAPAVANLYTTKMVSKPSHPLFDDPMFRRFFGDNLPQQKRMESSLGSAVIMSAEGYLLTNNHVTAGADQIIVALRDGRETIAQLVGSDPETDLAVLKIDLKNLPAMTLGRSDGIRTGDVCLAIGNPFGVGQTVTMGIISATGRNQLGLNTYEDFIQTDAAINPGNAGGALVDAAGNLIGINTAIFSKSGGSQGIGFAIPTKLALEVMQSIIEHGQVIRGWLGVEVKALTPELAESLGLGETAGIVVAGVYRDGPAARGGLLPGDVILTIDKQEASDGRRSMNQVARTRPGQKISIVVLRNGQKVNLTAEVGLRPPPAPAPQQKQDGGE

AlgW-R374A = biological target: T2, AlgW-R374A (Pseudomonas aeruginosa, UniProt Q9HVX1 30-389, R374A); experiment: cell-based or functional assay
T2 sequence: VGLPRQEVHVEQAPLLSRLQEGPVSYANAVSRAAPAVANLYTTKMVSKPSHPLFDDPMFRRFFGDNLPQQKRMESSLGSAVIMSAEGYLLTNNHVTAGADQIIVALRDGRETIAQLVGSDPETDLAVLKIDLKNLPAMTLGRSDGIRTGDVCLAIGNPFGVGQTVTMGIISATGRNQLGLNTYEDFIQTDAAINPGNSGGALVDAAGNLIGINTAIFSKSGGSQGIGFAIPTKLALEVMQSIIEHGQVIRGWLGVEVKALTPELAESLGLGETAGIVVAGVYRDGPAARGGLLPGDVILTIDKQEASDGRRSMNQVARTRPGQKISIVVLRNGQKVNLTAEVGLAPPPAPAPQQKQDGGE

AlgW-V284A = biological target: T3, AlgW-V284A (Pseudomonas aeruginosa, UniProt Q9HVX1 30-389, V284A); experiment: cell-based or functional assay
T3 sequence: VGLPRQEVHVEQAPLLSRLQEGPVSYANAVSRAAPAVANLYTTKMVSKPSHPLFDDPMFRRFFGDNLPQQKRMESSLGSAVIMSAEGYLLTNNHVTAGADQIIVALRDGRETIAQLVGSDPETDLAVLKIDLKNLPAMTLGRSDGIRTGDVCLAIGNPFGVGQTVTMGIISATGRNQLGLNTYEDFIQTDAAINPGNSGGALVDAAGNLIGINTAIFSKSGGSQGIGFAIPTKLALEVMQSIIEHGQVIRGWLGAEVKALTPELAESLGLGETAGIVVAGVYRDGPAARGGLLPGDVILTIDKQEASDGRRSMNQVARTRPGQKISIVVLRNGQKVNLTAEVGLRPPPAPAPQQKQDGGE

AlgW-E285A = biological target: T4, AlgW-E285A (Pseudomonas aeruginosa, UniProt Q9HVX1 30-389, E285A); experiment: cell-based or functional assay
T4 sequence: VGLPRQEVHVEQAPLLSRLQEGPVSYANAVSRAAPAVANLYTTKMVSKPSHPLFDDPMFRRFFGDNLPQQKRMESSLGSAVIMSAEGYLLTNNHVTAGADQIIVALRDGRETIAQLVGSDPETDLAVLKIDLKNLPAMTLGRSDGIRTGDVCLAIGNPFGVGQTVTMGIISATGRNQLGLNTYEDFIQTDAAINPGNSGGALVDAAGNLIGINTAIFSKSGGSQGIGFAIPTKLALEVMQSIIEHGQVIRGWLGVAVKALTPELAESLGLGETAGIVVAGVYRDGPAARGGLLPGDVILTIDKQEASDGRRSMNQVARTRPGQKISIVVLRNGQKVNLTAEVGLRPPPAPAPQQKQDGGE

AlgW-E151A = biological target: T5, AlgW-E151A (Pseudomonas aeruginosa, UniProt Q9HVX1 30-389, E151A); experiment: cell-based or functional assay
T5 sequence: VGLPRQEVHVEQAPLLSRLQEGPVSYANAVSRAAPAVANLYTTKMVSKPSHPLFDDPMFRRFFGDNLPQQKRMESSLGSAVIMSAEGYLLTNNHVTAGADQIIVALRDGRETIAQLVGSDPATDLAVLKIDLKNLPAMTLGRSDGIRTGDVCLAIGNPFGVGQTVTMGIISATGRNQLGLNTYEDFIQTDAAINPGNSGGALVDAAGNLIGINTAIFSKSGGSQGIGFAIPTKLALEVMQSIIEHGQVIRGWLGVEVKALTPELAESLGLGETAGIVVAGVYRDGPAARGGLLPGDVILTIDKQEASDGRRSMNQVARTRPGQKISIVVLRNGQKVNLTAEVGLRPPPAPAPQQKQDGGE

AlgW-R279A = biological target: T6, AlgW-R279A (Pseudomonas aeruginosa, UniProt Q9HVX1 30-389, R279A); experiment: cell-based or functional assay
T6 sequence: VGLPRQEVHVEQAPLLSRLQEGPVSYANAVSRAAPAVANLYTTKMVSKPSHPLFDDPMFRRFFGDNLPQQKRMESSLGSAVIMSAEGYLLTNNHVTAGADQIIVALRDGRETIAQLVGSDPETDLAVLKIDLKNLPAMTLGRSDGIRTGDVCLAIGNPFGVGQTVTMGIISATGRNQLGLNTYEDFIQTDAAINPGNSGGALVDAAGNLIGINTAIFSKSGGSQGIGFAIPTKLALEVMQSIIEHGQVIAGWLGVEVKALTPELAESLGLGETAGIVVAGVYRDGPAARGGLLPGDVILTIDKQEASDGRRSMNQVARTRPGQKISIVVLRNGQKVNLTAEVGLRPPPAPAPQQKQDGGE

AlgW-L282A = biological target: T7, AlgW-L282A (Pseudomonas aeruginosa, UniProt Q9HVX1 30-389, L282A); experiment: cell-based or functional assay
T7 sequence: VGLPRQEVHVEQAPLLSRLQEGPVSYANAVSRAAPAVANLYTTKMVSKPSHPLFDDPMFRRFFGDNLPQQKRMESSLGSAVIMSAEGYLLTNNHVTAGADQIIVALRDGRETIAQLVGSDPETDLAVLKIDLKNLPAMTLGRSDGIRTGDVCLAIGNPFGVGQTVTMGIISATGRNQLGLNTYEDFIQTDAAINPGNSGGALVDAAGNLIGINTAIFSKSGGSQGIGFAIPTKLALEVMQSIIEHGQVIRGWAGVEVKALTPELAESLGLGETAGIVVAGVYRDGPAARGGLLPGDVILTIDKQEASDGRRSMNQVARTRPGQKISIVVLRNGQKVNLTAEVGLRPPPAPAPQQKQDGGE

B1: decapeptide SVRDELRWVF (MucE C-terminal tail) (peptide)
peptide: SVRDELRWVF
notes: C-terminal decapeptide of the periplasmic protein MucE of Pseudomonas aeruginosa; also called C-terminal decapeptide of MucE
binding result [1]: binds | maximal cleavage activity of peptide-activated AlgW (Abz-VLAG-pNA) (AlgW-R374A): 5.45 μM min^−1 | half-maximal activation concentration of the peptide activator (cleavage of Abz-VLAG-pNA) (AlgW-V284A): 3.56 μM | maximal cleavage activity of peptide-activated AlgW (Abz-VLAG-pNA) (AlgW-V284A): 63.1 μM min^−1 | half-maximal activation concentration of the peptide activator (cleavage of Abz-VLAG-pNA) (AlgW-E285A): 3.84 μM | maximal cleavage activity of peptide-activated AlgW (Abz-VLAG-pNA) (AlgW-E285A): 57.5 μM min^−1 | half-maximal activation concentration of the peptide activator (cleavage of Abz-VLAG-pNA) (AlgW-E151A): 2.99 μM | half-maximal activation concentration of the peptide activator (cleavage of Abz-VLAG-pNA) (AlgW-R279A): 2.19 μM | half-maximal activation concentration of the peptide activator (cleavage of Abz-VLAG-pNA) (AlgW-L282A): 2.76 μM | maximal cleavage activity of peptide-activated AlgW (Abz-VLAG-pNA) (AlgW-L282A): 13.2 μM min^−1

From publication PMC8545111, “Molecular Basis of the Versatile Regulatory Mechanism of HtrA-Type Protease AlgW from Pseudomonas aeruginosa” (mBio, 2021)
